# Reference: patent US8398971B2, “Methods, compounds, and compositions for treatment and prophylaxis in the respiratory tract” (NexBio, Inc., priority 2009, dated 2013)
# Like-named read-outs stand apart in the source and are kept apart here.
# B1: DAS181: fusion protein comprising a catalytic domain of a sialidase, and an anchoring domain (SEQ ID NO:21) (protein)
# chain: MGDHPQATPAPAPDASTELPASMSQAQHLAANTATDNYRIPAITTAPNGDLLISYDERPKDNGNGGSDAPNPNHIVQRRSTDGGKTWSAPTYIHQGTETGKKVGYSDPSYVVDHQTGTIFNFHVKSYDQGWGGSRGGTDPENRGIIQAEVSTSTDNGWTWTHRTITADITKDKPWTARFAASGQGIQIQHGPHAGRLVQQYTIRTAGGAVQAVSVYSDDHGKTWQAGTPIGTGMDENKVVELSDGSLMLNSRASDGSGFRKVAHSTDGGQTWSEPVSDKNLPDSVDNAQIIRAFPNAAPDDPRAKVLLLSHSPNPRPWSRDRGTISMSCDDGASWTTSKVFHEPFVGYTTIAVQSDGSIGLLSEDAHNGADYGGIWYRNFTMNWLGEQCGQKPAKRKKKGGKNGKNRRNRKKKNP
# Experiments:
# [1] = test system: muscarinic receptor mediated airway resistance; assay type: in vivo, BALB/c mice; conditions: Example 5, 5, 10 and 20 mg/ml carbachol
# [2] = test system: muscarinic receptor mediated airway resistance; assay: airway resistance (Penh) in naive mice, methacholine challenged; assay type: in vivo, BALB/c mice; conditions: for dosage level sufficient for reduced airway responsiveness: intranasal once daily for three days
molecule,measurement,setting,value
B1,airway resistance vs PBS,[1]; 0.6 mg/kg once daily for three days,significantly reduced airway resistance
same,airway resistance vs baseline,[1]; 0.6 mg/kg,increased airway resistance above baseline
same,difference in airway resistance between dose groups,"[2]; Example 3, 0.06, 0.1, 0.6 mg/kg",No difference was observed between the different dose groups
same,airway resistance vs PBS,"[2]; Example 3, 0.06, 0.1 or 0.6 mg/kg intranasal once daily for three days, 48 mg/ml Mch",significantly reduced airway resistance
same,dosage level sufficient for reduced airway responsiveness,[2]; Example 3,≤ 0.06 mg/kg
same,airway resistance vs PBS control,"[2]; Example 4, 0.6 mg/kg once daily for three days, 6, 12, 24 and 48 mg/ml Mch",significantly reduced airway resistance
same,airway resistance vs baseline,"[2]; Example 4, 0.6 mg/kg, 3 and 6 mg/ml methacholine",did not increase airway resistance above baseline
same,airway resistance vs baseline,"[2]; Example 4, 0.6 mg/kg, 12, 24 and 48 mg/ml methacholine",increased airway resistance above baseline
same,airway resistance in response to Mch challenge vs PBS,"[2]; Example 7, 0.6 mg/kg, one day of treatment",no difference in airway resistance
same,airway resistance vs PBS,"[2]; Example 7, 0.6 mg/kg, three days of treatment, 24 and 48 mg/ml Mch",significantly reduced airway resistance
same,airway resistance vs PBS,"[2]; Example 7, 0.6 mg/kg, two days of treatment, 3, 6 and 48 mg/ml methacholine","not at 3, 6 and 48 mg/ml"
same,airway resistance vs PBS,"[2]; Example 7, 0.6 mg/kg, two days of treatment, 12 and 24 mg/ml methacholine",appears to reduce airway resistance
same,difference in airway resistance between dose groups,"[2]; Example 8, 0.0008, 0.004, 0.02, 0.1 mg/kg",No difference was observed between the different dose groups
same,airway resistance vs PBS,"[2]; Example 8, 0.0008, 0.004, 0.02 or 0.1 mg/kg once daily for three days, 24 and 48 mg/ml Mch",significantly reduced airway resistance
same,dosage level sufficient for reduced airway responsiveness,[2]; Example 8,≤ 0.0008 mg/kg
same,average percentage change Penh (increase in airway resistance over baseline),"[2]; Example 9, 10 ng/kg once daily three days, 24 mg/ml Mch, PBS 550-560%",525-530%
same,average percentage change Penh (increase in airway resistance over baseline),"[2]; Example 9, 0.1 μg/kg, 24 mg/ml Mch",450%
same,average percentage change Penh (increase in airway resistance over baseline),"[2]; Example 9, 1 μg/kg, 24 mg/ml Mch",525%
same,average percentage change Penh (increase in airway resistance over baseline),"[2]; Example 9, 10 μg/kg, 24 mg/ml Mch",225%
same,average percentage change Penh (increase in airway resistance over baseline),"[2]; Example 9, 0.1 mg/kg, 24 mg/ml Mch",200%
same,airway resistance vs PBS,"[2]; Example 9, all doses 10 ng/kg to 0.1 mg/kg, 24 mg/ml Mch",reduced airway resistance
same,airway resistance in response to Mch,"[2]; Example 9, dose levels of 0.01 or 0.1 mg/kg",significantly reduced airway resistance
